The values below come from patent publication US20200347146A1 (I MAB BIOPHARMA US, published 2020).

Assay [1] has as its target T1, human PD-L1 on PD-L1 positive Raji cells (human, UniProt Q9NZQ7 19-290).
T1 construct: whole, on cells; also called cell surface PD-L1; PD-L1+ cells
Briefly: flow cytometry on PD-L1 positive Raji cells, AF633 anti-human Fc detection. Background: Flow cytometry measures light scatter and fluorescence of single cells or particles in a stream.

The target in assay [2] is T2, human PD-L1 protein (soluble) (human, UniProt Q9NZQ7 19-238, limits assumed).
T2 construct: also called soluble PD-L1
Description: ELISA, human PD-L1 coated on the plate, anti-human Fc HRP detection. (ELISA stands for enzyme-linked immunosorbent assay.)

Assay [3] has as its target T3, human CD73 protein (soluble) (human, UniProt P21589 27-549, limits assumed).
T3 construct: its species is not restated there; also called soluble CD73; 5'-nucleotidase
T3 sequence (looked up): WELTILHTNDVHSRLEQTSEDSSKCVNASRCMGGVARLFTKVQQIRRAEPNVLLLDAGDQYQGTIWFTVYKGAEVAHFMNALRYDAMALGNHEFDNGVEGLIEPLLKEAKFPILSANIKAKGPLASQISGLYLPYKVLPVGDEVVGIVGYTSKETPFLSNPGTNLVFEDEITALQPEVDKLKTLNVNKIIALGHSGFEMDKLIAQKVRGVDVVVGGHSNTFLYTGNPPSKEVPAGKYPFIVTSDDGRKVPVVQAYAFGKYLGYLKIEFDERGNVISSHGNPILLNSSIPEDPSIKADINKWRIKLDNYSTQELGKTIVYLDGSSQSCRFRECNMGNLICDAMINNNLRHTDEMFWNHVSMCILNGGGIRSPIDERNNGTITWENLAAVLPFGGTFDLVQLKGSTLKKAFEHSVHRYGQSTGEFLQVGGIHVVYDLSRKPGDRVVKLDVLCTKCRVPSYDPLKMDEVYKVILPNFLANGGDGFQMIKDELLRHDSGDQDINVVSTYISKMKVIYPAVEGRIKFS
Description: ELISA, human CD73 coated on the plate, anti-human Fc HRP detection. On the procedure:
Plated were coated with 100 μl of 1 μg/ml human CD73 protein overnight. The samples were blocked with 1% BSA in PBST for 1 hr, washed with PBST 3×. […] Binding with anti-hu Fc HRP was at 1:10000 in PBST, RT for 30 min, wash with PBST 3×. 100 μl of TMB and 100 μl of HCl were then added.

Assay [4] addresses T4, CD73 on the surface of A375 cells (UniProt P21589 27-549, limits assumed).
T4 construct: whole, on cells; also called cell surface CD73
T4 sequence (looked up): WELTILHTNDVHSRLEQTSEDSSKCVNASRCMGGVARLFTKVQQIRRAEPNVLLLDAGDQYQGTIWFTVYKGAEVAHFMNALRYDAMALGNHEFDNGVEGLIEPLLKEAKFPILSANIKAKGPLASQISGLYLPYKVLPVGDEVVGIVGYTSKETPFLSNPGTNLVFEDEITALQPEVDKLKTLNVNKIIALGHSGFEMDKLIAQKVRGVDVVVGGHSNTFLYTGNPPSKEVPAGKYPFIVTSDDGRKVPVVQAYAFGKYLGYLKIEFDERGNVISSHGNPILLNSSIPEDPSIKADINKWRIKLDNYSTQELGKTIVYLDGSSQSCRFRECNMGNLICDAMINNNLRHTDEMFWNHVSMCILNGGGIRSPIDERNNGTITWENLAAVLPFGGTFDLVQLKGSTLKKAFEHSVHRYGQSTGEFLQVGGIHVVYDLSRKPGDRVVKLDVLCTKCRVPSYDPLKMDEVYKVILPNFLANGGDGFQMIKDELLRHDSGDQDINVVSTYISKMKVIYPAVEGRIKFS
Briefly: flow cytometry on A375 cells, AF633 anti-human Fc detection. As for the experimental part: A375 cells that constitutively expressed CD73 on the surface were used in this example. 1×10⁵ A375 cells/well were suspended in FACS buffer. Antibodies diluted from 10 nM by 2-fold, 100 μl into each well, 4° C. for 30 min. The samples were washed with FACS buffer for 1×. AF633-anti hu Fc was added for binding for 30 min at 4° C., and washed with FACS buffer for 1×.

T2 sequence (Q9NZQ7 19-238 limits assumed): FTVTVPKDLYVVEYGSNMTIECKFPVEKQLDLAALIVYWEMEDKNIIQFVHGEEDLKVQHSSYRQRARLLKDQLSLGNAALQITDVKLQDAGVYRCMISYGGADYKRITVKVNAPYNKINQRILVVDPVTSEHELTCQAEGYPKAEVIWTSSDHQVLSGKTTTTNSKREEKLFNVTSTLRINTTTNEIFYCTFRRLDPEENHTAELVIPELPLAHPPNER
T1 sequence (Q9NZQ7 19-290): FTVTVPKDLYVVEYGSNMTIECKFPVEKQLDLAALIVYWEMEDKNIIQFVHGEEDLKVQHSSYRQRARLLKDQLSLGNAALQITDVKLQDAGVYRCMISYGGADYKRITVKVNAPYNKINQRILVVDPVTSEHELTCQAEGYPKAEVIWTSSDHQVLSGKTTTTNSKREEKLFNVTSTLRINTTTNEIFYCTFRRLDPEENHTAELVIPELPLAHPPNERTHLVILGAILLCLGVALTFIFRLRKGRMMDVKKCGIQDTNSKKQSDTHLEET

B1: H12(PDL1) (monospecific anti-PD-L1 antibody with the H12 VH and H12 VL) (antibody, V domains shown)
VH: EVQLVESGGGLVQPGGSLRLSCAASGFTFSSYDMSWVRQAPGKSLEWVATISDAGGYIYYRDSVKGRFTISRDNAKNSLYLQMNSLRDEDTAVYICARELPWRYALDYWGQGTTVTVSS
VL: DIQMTQSPSSLSASVGDRVTITCKASQDVTPAVAWYQQKPGKAPKLLIYSTSSRYTGVPSRFSGSGSGTDFTFTISSLQPEDIATYYCQQHYTTPLTFGQGTKLEIK
notes: it was detected with anti-human Fc; also called PD-L1 antibody H12
In the case of B1, the binding result in assay [1] and in assay [2] was “binds” in each case.

B2: hu309 (monospecific anti-CD73 antibody with the 309 VH and 309 VL) (antibody, V domains shown)
VH: EVQLQESGPGLVKPSETLSLTCAVSGYSITSGYYWNWIRQPPGKKLEWMGYINYGGSNGYNPSLKSRITISRDTSKNQFSLKLSSVTAADTAVYYCARDYDAYYEALDDWGQGTTVTVSS
VL: EIVLSQSPATLSLSPGERATLSCRASSRVNYMHWYQQKPGQSPRPWISATSNLASGVPARFSGSGSGTSYTLTISSLEPEDFAVYYCQQWSSNPPTFGGGTKVEIK
notes: it was detected with anti-human Fc
Consider B2, for which the binding result in assay [3] and in assay [4] was “binds” throughout.
